From US20140051120A1 (Genentech, published 2014)
Like-named read-outs stand apart in the source and are kept apart here. Where no end group is shown, it is not given here.

T1: p2S (p2 peptide biotinylated through its free cysteine) (human, also: biotinylated (maleimide PEO2-biotin) on one of the two Cys, which one not given here)
T1 construct: The peptide has two cysteines; also called b-p2S
T1 peptide: RPRYACCPGWKRT

T2: mouse EGFL7 (mEGFL7-CB-His) (mouse, UniProt Q9QXT5 22-275)
T2 sequence: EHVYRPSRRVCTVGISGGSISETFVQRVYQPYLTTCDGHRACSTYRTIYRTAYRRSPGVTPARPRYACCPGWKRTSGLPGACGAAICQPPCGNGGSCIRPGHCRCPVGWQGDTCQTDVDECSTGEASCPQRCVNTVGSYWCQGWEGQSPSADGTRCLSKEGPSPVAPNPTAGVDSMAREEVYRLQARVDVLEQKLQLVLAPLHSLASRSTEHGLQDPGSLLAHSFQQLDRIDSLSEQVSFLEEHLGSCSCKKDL

T3: p5 peptide of EGFL7 (human)
T3 construct: also called Peptide P5
T3 peptide: RACSTYRTIYRTA


Legend:
[1] = biological target: T1, p2S (p2 peptide biotinylated through …); assay: SPR (BIAcore-2000), IgG injected over immobilized p2S peptide
Procedure: (§1) Affinity determinations were performed by surface plasmon resonance using a BIAcore™-2000. […] Purified IgG variants were injected (using a 2-fold serial dilution of 0.5 to 1000 nM in PBST) at a flow rate of 30 μL/min. Each sample was analyzed with 3-minute association and 3.5-minute disassociation. After each injection the chip was regenerated using 10 mM glycine pH 1.7.
(§2) Binding response was corrected by subtracting a control flow cell from IgG variant flow cells. A 1:1 Languir model of simultaneous fitting of kₒₙ and koff was used for kinetics analysis.

[2] = biological target: T1, p2S (p2 peptide biotinylated through …); assay: as above
Procedure: as §1, §2

[3] = biological target: T2, mouse EGFL7 (mEGFL7-CB-His); assay: SPR (Biacore), IgG over immobilized mEGFL7-CB at 37 C;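 also: IgG injected as twofold series from 0.5 to 1000 nM, 3 min association and 3.5 min dissociation, reference flow cell subtracted, kinetics fitted to 1:1 Langmuir model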
Procedure: Affinity determinations were performed by surface plasmon resonance using a BIAcore™-2000. Truncated EGFL7 or p5 peptide was immobilized (approximately 50-200 RU) in 10 mM sodium acetate pH 4.8 on a CMS sensor chip. Purified IgG variants were injected (using a 2-fold serial dilution of 0.5 to 1000 nM in PBST) at a flow rate of 30 μL/min. Each sample was analyzed with 3-minute association and 3.5-minute disassociation. After each injection the chip was regenerated using 10 mM glycine pH 1.7.
as §2

[4] = biological target: T3, p5 peptide of EGFL7; assay: SPR (Biacore), IgG over immobilized P5 peptide at 37 C, n = 2
[5] = biological target: T3, p5 peptide of EGFL7; assay: SPR (Biacore), IgG over immobilized P5 peptide at 37 C;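 also: IgG variants injected at 0.5–1000 nM (2-fold series), 3 min association and 3.5 min dissociation, reference flow cell subtracted, kinetics fitted with a 1:1 Langmuir model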

Binder	Kd [2] [nM]	koff [2] [s⁻¹]	kon [2] [M⁻¹ s⁻¹]	Kd [3] [nM]	koff [3] [s⁻¹]	kon [3] [M⁻¹ s⁻¹]	Kd [5] [nM]	koff [5] [s⁻¹]	kon [5] [M⁻¹ s⁻¹]	also measured
4F11.v15 IgG (antibody, name in Kabat numbering, V domains shown, IgG; Kabat numbering) VH: EVQLVESGGGLVQPGGSLRLSCAASGHTFTTYGMSWVRQAPGKGLEWVGWINTHSGVPTYADDFKGRFTISLDNSKNTAYLQMNSLRAEDTAVYYCARLGSSAVDYWGQGTLVTVSS VL: DIQMTQSPSSLSASVGDRVTITCKASQSVDYDGDSYMSWYQQKPGKAPKLLIYGASNLESGVPSRFSGSGSGTDFTLTISSLQPEDFATYYCQQNNEDPYTFGQGTKVEIKR	–	–	–	–	–	–	–	–	–	Kd [1]: 30.5 nM; koff [1]: 0.00276 s⁻¹; kon [1]: 90500 M⁻¹ s⁻¹
4F11.v4 IgG (antibody, V domains shown, IgG; Kabat numbering) VH: EVQLVESGGGLVQPGGSLRLSCAASGHTFTTYGMSWVRQAPGKGLEWVGWINTHSGVPTYADDFKGRFTISRDNSKNTVYLQMNSLRAEDTAVYYCARLGSSAVDYWGQGTLVTVSS VL: DIQMTQSPSSLSASVGDRVTITCKASQSVDYRGDSYMSWYQQKPGKAPKLLIYGASNLESGVPSRFSGSGSGTDFTLTISSLQPEDFATYYCQQNNEDPYTFGQGTKVEIK	13.6	0.00314	231000	–	–	–	–	–	–	–
4F11.v9 IgG (antibody, V domains shown, IgG; Kabat numbering) VH: EVQLVESGGGLVQPGGSLRLSCAASGHTRTTYGMSWVRQAPGKGLEWVGWINTHSGVPTYADDFKGRFTISRDNSKNTVYLQMNSLRAEDTAVYYCARLGSSAVDYWGQGTLVTVSS VL: DIQMTQSPSSLSASVGDRVTITCKASQSVDYDGDSYMSWYQQKPGKAPKLLIYGASNLESGVPSRFSGSGSGTDFTLTISSLQPEDFATYYCQQNNEDPYTFGQGTKVEIK	9	0.0023	264000	–	–	–	–	–	–	–
4F11.v1 IgG (antibody, V domains shown, Expressed as IgG in 293 cells; also called 4F11-graft; direct CDR-graft) VH: EVQLVESGGGLVQPGGSLRLSCAASGHTFTTYGMSWVRQAPGKGLEWVGWINTHSGVPTYADDFKGRFTISRDNSKNTLYLQMNSLRAEDTAVYYCARLGSSAVDYWGQGTLVTVSS VL: DIQMTQSPSSLSASVGDRVTITCKASQSVDYDGDSYMSWYQQKPGKAPKLLIYGASNLESGVPSRFSGSGSGTDFTLTISSLQPEDFATYYCQQNNEDPYTFGQGTKVEIKR	96.8	0.00331	34200	–	–	–	–	–	–	–
4F11.v2 IgG (antibody, name in Kabat numbering, V domains shown, IgG; Kabat numbering) VH: EVQLVESGGGLVQPGGSLRLSCAASGHTFTTYGMSWVRQAPGKGLEWVGWINTHSGVPTYADDFKGRFTISRDNSKNTTYLQMNSLRAEDTAVYYCARLGSSAVDYWGQGTLVTVSS VL: DIQMTQSPSSLSASVGDRVTITCKASQSVDYDGDSYMSWYQQKPGKAPKLLIYGASNLESGVPSRFSGSGSGTDFTLTISSLQPEDFATYYCQQNNEDPYTFGQGTKVEIKR	54.4	0.00291	53500	–	–	–	–	–	–	–
4F11.v13 IgG (antibody, name in Kabat numbering, V domains shown, IgG; Kabat numbering) VH: EVQLVESGGGLVQPGGSLRLSCAASGHTFTTYGMSWVRQAPGKGLEWVGWINTHSGVPTYADDFKGRFTISLDNSKNTAYLQMNSLRAEDTAVYYCARLGSSAVDYWGQGTLVTVSS VL: DIQLTQSPSSLSASVGDRVTITCKASQSVDYDGDSYMSWYQQKPGKAPKLLIYGASNLESGVPSRFSGSGSGTDFTLTISSLQPEDFATYYCQQNNEDPYTFGQGTKVEIKR	–	–	–	–	–	–	–	–	–	Kd [1]: 12.5 nM; koff [1]: 0.00186 s⁻¹; kon [1]: 149000 M⁻¹ s⁻¹
4F11.v3 IgG (antibody, name in Kabat numbering, V domains shown, IgG; Kabat numbering) VH: EVQLVESGGGLVQPGGSLRLSCAASGHTFTTYGMSWVRQAPGKGLEWVGWINTHSGVPTYADDFKGRFTISRDNSKNTVYLQMNSLRAEDTAVYYCARLGSSAVDYWGQGTLVTVSS VL: DIQMTQSPSSLSASVGDRVTITCKASQSVDYDGDSYMSWYQQKPGKAPKLLIYGASNLESGVPSRFSGSGSGTDFTLTISSLQPEDFATYYCQQNNEDPYTFGQGTKVEIKR	34.6	0.00292	84500	–	–	–	–	–	–	–
4F11.v14 IgG (antibody, name in Kabat numbering, V domains shown, IgG; Kabat numbering) VH: EIQLVESGGGLVQPGGSLRLSCAASGHTFTTYGMSWVRQAPGKGLEWMGWINTHSGVPTYADDFKGRFTFSLDTSASTAYLQMNSLRAEDTAVYFCARLGSSAVDYWGQGTLVTVSS VL: DIQLTQSPSSLSASVGDRVTITCKASQSVDYDGDSYMSWYQQKPGKAPKLLIYGASNLESGVPSRFSGSGSGTDFTLTISSLQPEDFATYYCQQNNEDPYTFGQGTKVEIKR	–	–	–	–	–	–	–	–	–	Kd [1]: 7 nM; koff [1]: 0.000984 s⁻¹; kon [1]: 141000 M⁻¹ s⁻¹
4F11.v5 IgG (antibody, V domains shown, IgG; Kabat numbering) VH: EVQLVESGGGLVQPGGSLRLSCAASGHTFTTYGMSWVRQAPGKGLEWVGWINTHSGVPTYADDFKGRFTISRDNSKNTVYLQMNSLRAEDTAVYYCARLGSSAVDYWGQGTLVTVSS VL: DIQMTQSPSSLSASVGDRVTITCKASQSVDYDGDSYVSWYQQKPGKAPKLLIYGASNLESGVPSRFSGSGSGTDFTLTISSLQPEDFATYYCQQNNEDPYTFGQGTKVEIK	34	0.00242	71100	–	–	–	–	–	–	–
4F11.v12 IgG (antibody, V domains shown, IgG; Kabat numbering) VH: EVQLVESGGGLVQPGGSLRLSCAASGHTFTTYGMSWVRQAPGKGLEWVGWINIHSGVPTYADDFKGRFTISRDNSKNTVYLQMNSLRAEDTAVYYCARLGSSAVDYWGQGTLVTVSS VL: DIQMTQSPSSLSASVGDRVTITCKASQSVDYDGDSYMSWYQQKPGKAPKLLIYGASNLESGVPSRFSGSGSGTDFTLTISSLQPEDFATYYCQQNNEDPYTFGQGTKVEIK	11.1	0.00218	196000	–	–	–	–	–	–	–

Second part, led by results:

Kd [2] [nM]	koff [2] [s⁻¹]	kon [2] [M⁻¹ s⁻¹]	Kd [3] [nM]	koff [3] [s⁻¹]	kon [3] [M⁻¹ s⁻¹]	Kd [5] [nM]	koff [5] [s⁻¹]	kon [5] [M⁻¹ s⁻¹]	Binder	also measured
–	–	–	7.65	0.000791	103000	–	–	–	18F7.v6D IgG (antibody, V domains shown, IgG; Variant of 18F7.v6) VH: EVQLVESGGGLVQPGGSLRLSCAASGYTFIDYYMNWVRQAPGKGLEWVGDINLDSGGTHYNQKFKGRFTISRDKSKNTAYLQMNSLRAEDTAVYYCAREGVYHDYDDYAMDYWGQGTLVTVSS VL: DIQMTQSPSSLSASVGDRVTITCRTSQSLVHISGITYLHWYQQKPGKAPKLLIYRVSNRFSGVPSRFSGSGSGTDFTLTISSLQPEDFATYYCGQSTHVPLTFGQGTKVEIK	Kd [4]: 9.77 nM; koff [4]: 0.00232 s⁻¹; kon [4]: 313000 M⁻¹ s⁻¹
–	–	–	0.8	1.64e-05	21000	5.6	0.000607	108000	18F7.v6J IgG (antibody, V domains shown, IgG; Variant of 18F7.v6) VH: EVQLVESGGGLVQPGGSLRLSCAASGYTFIDYYMNWVRQAPGKGLEWVGDINLDNSGTHYNQKFKGRFTISRDKSKNTAYLQMNSLRAEDTAVYYCAREGVYHDYDDYAMDYWGQGTLVTVSS VL: DIQMTQSPSSLSASVGDRVTITCRTSQSLVHINSITYLHWYQQKPGKAPKLLIYRVSNRFSGVPSRFSGSGSGTDFTLTISSLQPEDFATYYCGQSTHVPLTFGQGTKVEIK	–
–	–	–	1.58	9.32e-05	59000	3.35	0.000763	228000	18F7.v9 IgG (antibody, V domains shown, IgG; Kabat numbering) VH: EVQLVESGGGLVQPGGSLRLSCAASGYTFIDKYMNWVRQAPGKGLEWVGDINLDNGGTHYNQKFKGRFTISRDKSKNTAYLQMNSLRAEDTAVYYCAREGVYHDYDDYAMDYWGQGTLVTVSS VL: DIQMTQSPSSLSASVGDRVTITCRTSQSLVHINGITYLHWYQQKPGKAPKLLIYRVSNRFSGVPSRFSGSGSGTDFTLTISSLQPEDFATYYCSQSTHVPLTFGQGTKVEIK	–
–	–	–	2.04	0.000199	98000	2.16	0.00102	472000	18F7.v8 IgG (antibody, V domains shown, IgG; Kabat numbering) VH: EVQLVESGGGLVQPGGSLRLSCAASGYTFIDYYMNWVRQAPGKGLEWVGDINLDNGGTHYNQKFKGRFTISRDKSKNTAYLQMNSLRAEDTAVYYCAREGVYHDYDDYAMDYWGQGTLVTVSS VL: DIQMTQSPSSLSASVGDRVTITCRTSQSLVHINGITYLHWYQQKPGKAPKLLIYRVSNRFSGVPSRFSGSGSGTDFTLTISSLQPEDFATYYCVQSTHVPLTFGQGTKVEIK	–
–	–	–	1.38	9.58e-05	70000	2.87	0.000718	251000	18F7.v7 IgG (antibody, V domains shown, IgG; Kabat numbering) VH: EVQLVESGGGLVQPGGSLRLSCAASGYTFIDYYMNWVRQAPGKGLEWVGDINLDNGGTHYNQKFKGRFTISRDKSKNTAYLQMNSLRAEDTAVYYCAREGVYHDYDDYAMDYWGQGTLVTVSS VL: DIQMTQSPSSLSASVGDRVTITCRTSQSLVHINGITYLHWYQQKPGKAPKLLIYRVSNRFSGVPSRFSGSGSGTDFTLTISSLQPEDFATYYCAQSTHVPLTFGQGTKVEIK	–
–	–	–	1.22	0.000195	160000	0.982	0.000811	825000	18F7.v10 IgG (antibody, V domains shown, IgG; Kabat numbering) VH: EVQLVESGGGLVQPGGSLRLSCAASGYTFIDYYMNWVRQAPGKGLEWVGDINLDNGGTHYNQKFKGRFTISRDKSKNTAYLQMNSLRAEDTAVYYCAREGVYHPYDDYAMDYWGQGTLVTVSS VL: DIQMTQSPSSLSASVGDRVTITCRTSQSLVHINGITYLHWYQQKPGKAPKLLIYRVSNRFSGVPSRFSGSGSGTDFTLTISSLQPEDFATYYCSQSTHVPLTFGQGTKVEIK	–
–	–	–	21.3	0.000488	23000	16.7	0.00316	190000	18F7.v6I IgG (antibody, V domains shown, IgG; Variant of 18F7.v6) VH: EVQLVESGGGLVQPGGSLRLSCAASGYTFIDYYMNWVRQAPGKGLEWVGDINLDNSGTHYNQKFKGRFTISRDKSKNTAYLQMNSLRAEDTAVYYCAREGVYHDYDDYAMDYWGQGTLVTVSS VL: DIQMTQSPSSLSASVGDRVTITCRTSQSLVHIQGITYLHWYQQKPGKAPKLLIYRVSNRFSGVPSRFSGSGSGTDFTLTISSLQPEDFATYYCGQSTHVPLTFGQGTKVEIK	–
